# Tests used:
# [1] = ATR-FTIR secondary structure of solid-state protein; type: physicochemical; conditions: 10 μM protein in 50 mM PB
# Description: Attenuated Total Reflectance Fourier Transform Infrared Spectroscopy (ATR-FTIR): ATR-FTIR experiments were performed using Perkin Elmer System 2000 FT-IR with DuraSamplIR II T diamond ATR accessory and equipped with a MCT-A detector. Approximately, 5 μL of peptide solution (10 μM in 50 mM PB, pH 4, 8, and 10) was added on the diamond ATR surface. The spectrum (128 scans) was measured at room temperature over a range of 4000-400 cm^−1 with 0.5 cm^−1 resolution. PeakFit software was used to process the data, which involved a 2nd derivative zero baseline correction of the amide I region between 1700-1600 cm^−1 and deconvolution of peaks with a Gaussian function. All readings represent the average of two trials.
# To quantifying the secondary structure of the protein in its solid-state, ATR-FTIR experiments were conducted to evaluate secondary structure of insoluble Q fibers at pH 4, 8, and 10 (Table 8). The frequency measured in the regions of the amide I and amide II absorptions of a protein correlate to the secondary structural motifs within the protein, and were thereby used to assess conformation of the protein in its solid-state (FIGS. 20a-20d). Secondary structure conformation based on ATR-FTIR data for Q in 50 mM PB at pH 4, 8, and 10, and in the presence of curcumin at a 5:1 molar ratio with Q at pH 4 are shown in […]. Percent composition was determined from relative areas of peaks fit to spectra (FIGS. 20a-20d).
# Secondary structure conformation based on ATR-FTIR data for 10 μM protein in 50 mM PB before and after templation of AuNPs is provided in Table 10. Percent composition was determined from relative areas of peaks fit to spectra (see spectra FIGS. 37a-37d, FIGS. 38a-38d).
# [2] = Transmission electron microscopy of protein fibers; type: physicochemical; conditions: for fiber formation seen by TEM: pH 4, 50 mM PB
# Description: Transmission electron microscopy: A JEOL JEM-1400 transmission electron microscope (TEM) was used to study the supramolecular protein structure. […] After 1 minute, the grids were blotted using filter paper and rinsed with 3-4 drops Milli Q water to remove excess salts from the buffer. After blotting with filter paper, the sample was negatively stained by adding 3 μL of 1% filtered uranyl acetate, blotted using filter paper, and dried at room temperature for 10-15 minutes. ImageJ software was used to measure the fibers dimensions.
# [3] = Curcumin binding fluorescence; conditions: in the presence of Zn^2+
# Text: FIG. 40. Fluorescence of C and Q or with incorporated trifluoroleucine/TFL (C TFL and Q TFL) in the presence of no metal, Ni (II), or Zn (II) and curcumin. An increase in fluorescence indicates structural stability of the protein as it is able to bind with curcumin, the fluorescent probe in this case.
# [4] = Confocal microscopy of protein fibers in the presence of curcumin; type: physicochemical; conditions: protein:curcumin 1:5, 50 mM phosphate buffer pH 4
# Description: FIGS. 7a-7c show confocal microscopy of CC, Q54, and COMPcc^S wt, in the presence of curcumin. The mixture of protein to curcumin were all at a ratio of 1:5. […] All different proteins are in 50 mM phosphate buffer, pH 4. Protein and curcumin samples were combined and incubated for 12 hours prior to imaging. […] The width of COMPcc^S wt shown in FIG. 7c was determined to be 12.72 μm. […] Overall, Q54 fibers appeared to be more uniform in width, as well as more robust and consistent in fiber formation.
# Confocal microscopy: Samples were imaged using a Leica TCS SP2 AOBS confocal microscope system equipped with argon ion and HeNe lasers. A 63×/1.4 NA oil-immersion objective was used for all of the images. Lab-Tek II chambered #1.5 German coverglass system was used as the imaging slide. Curcumin was excited using the 458 nm line of the argon laser, and images were taken with the detection window set between 465 and 560 nm. The pinhole aperture was set at an Airy value of 1.0, which was equivalent to sampling an ˜500 nm vertical z slice of the fiber, as estimated by the axial resolution, rz,confocal≈1.4λcm n/NA^2 (NA, numerical aperture; n, refractive index; λcm, emission wavelength (525 nm)). Interference contrast images were obtained using the Leica tube optics HC 1×/B apparatus with a focusing Bertrand lens. The 3D reconstructions were constructed using ImageJ 64 1.43 in concert with Amira 5.43, employing the Volren 3D rendering routine.
# [5] = Circular dichroism wavelength scans (secondary structure); type: physicochemical; conditions: for −θ222 × 10^3 / −θmin × 10^3: 10 μM protein; for random coil / α helices / β sheet: CD, K2D method
# Description: (§1) Circular dichroism: Circular dichroism (CD) measurements were conducted on a Jasco J-815 CD spectrometer. Wavelength and temperature scans were conducted with 10 μM (6.3×10^−2 mg/mL) protein concentrations. The wavelength spectrum was measured over a range from 190 to 250 nm with a step size of 1 nm Mean residue ellipticity (MRE) was calculated from raw data according to the procedure described in Gunasekar et al. 2009. Secondary structure analysis of α-helical, β-sheet, and random coil content was calculated with the K2D method using DichroWeb software. Temperature scans of each protein were performed over a range of 20-85° C. with a temperature step of 1° C./min at 222 nm. Scans were also performed at of 2° C./min and 5° C./min to evaluate dependence of thermal melt signatures on scan speed. All measurements were made in duplicates of independently prepared proteins and data represents the average. Thermodynamic properties of wt and Q were determined through analysis of thermal melts. A two-state model was used, where assumptions included monophasic behavior and reversible melting behavior. These assumptions were confirmed experimentally by melting (from 20 to 85° C.) and cooling (from 85 to 20° C.) the proteins. Calculation of thermodynamic parameters including Tm, ΔG°, ΔH°, and ΔS° were performed according to the method described by Greenfield.
# To assess the secondary structure of the proteins under acidic as well as neutral and basic conditions in solution, CD measurements were performed. […] The presence of residue P28 towards the center of Q may have influenced the secondary structure, showing decreased helical content when compared to wt at pH 4 and 10 (FIG. 16). The negative control, L, was completely unstructured, devoid of helical content at pH 4 (FIG. 11). […] As the pH increased, the helical content of soluble Q protein increased.
# Mean residual ellipticities from circular dichroism measurements at pH 4, 8, and 10 for wt, L, and Q. The data presented in Table 5 represents the average and standard deviation of at least two replicates.
# [6] = without any evidence for protofibrils; cited from earlier work
# [7] = Circular dichroism thermal melts at 222 nm, van't Hoff analysis; type: physicochemical; conditions: for Tm: 10 μM protein; for ΔG° (free energy of folding): at 25° C.; for ΔS°: ΔS° = ΔH°/Tm
# Description: as §1
# Thermodynamic properties were assessed via thermal melt of the proteins at 222 nm. Prior to calculating thermodynamic constants, assumptions of monophasic behavior and melt reversibility were confirmed experimentally for wt and Q at all pHs by melting and cooling proteins (FIGS. 18a-18d). The van't Hoff equation was applied to thermal melts of the proteins in the range of 20-85° C.
molecule,measurement,setting,value
"C: CC protein, SEQ ID NO:1, variant of COMPcc; coiled-coil forming homopentamers (MRGSHHHHHHGSIEGRAPQMLRELQETNAALQDVRELLRQQVKEITFLKNTSKL)","Random, percent composition",[1]; +AuNP (after templation),16%
same,"α helix, percent composition",[1]; +AuNP (after templation),30%
same,"β sheet, percent composition",[1]; +AuNP (after templation),54%
same,"Random, percent composition",[1]; before templation of AuNPs,28%
same,"α helix, percent composition",[1]; before templation of AuNPs,38%
same,"β sheet, percent composition",[1]; before templation of AuNPs,33%
same,fiber formation seen by TEM,[2],not been observed to form fibers
same,binding to small molecule (curcumin fluorescence),[3],substantially increase the binding to small molecule
same,average width of protein fibers,"[4]; 20 mM protein, 100 mM curcumin, 12 hours",19.24±12 μm
"L: L44 protein, SEQ ID NO:3, variant of COMPcc; negative control swap protein (MRGSHHHHHHGSIEGRLQDVERLLRQQVKEITFLKNTAPQMLRELQETNAASKL) [reference compound]",−θ222 × 10^3,[5]; pH 4,−0.41 10^3 deg cm^2 dmol^-1
same,−θmin × 10^3,[5]; pH 4,5.18 10^3 deg cm^2 dmol^-1
same,random coil,[5]; pH 4,43%
same,α helices,[5]; pH 4,9%
same,β sheet,[5]; pH 4,49%
same,−θ222 × 10^3,[5]; pH 8,3.54 10^3 deg cm^2 dmol^-1
same,−θmin × 10^3,[5]; pH 8,4.14 10^3 deg cm^2 dmol^-1
same,random coil,[5]; pH 8,49%
same,α helices,[5]; pH 8,13%
same,β sheet,[5]; pH 8,38%
same,−θ222 × 10^3,[5]; pH 10,3.40 10^3 deg cm^2 dmol^-1
same,−θmin × 10^3,[5]; pH 10,3.89 10^3 deg cm^2 dmol^-1
same,random coil,[5]; pH 10,52%
same,α helices,[5]; pH 10,16%
same,β sheet,[5]; pH 10,32%
same,fiber formation seen by TEM,[2],not been observed to form fibers
same,fiber formation seen by confocal microscopy,[4],No fibers were seen
"Qx: variant of Q54 void of the 6×his tag, SEQ ID NO:6 (VKEITFLKNTAPQMLRELQETNAALQDVRELLRQQSKL)","Random, percent composition",[1]; +AuNP (after templation),20%
same,"α helix, percent composition",[1]; +AuNP (after templation),48%
same,"β sheet, percent composition",[1]; +AuNP (after templation),32%
same,"Random, percent composition",[1]; before templation of AuNPs,29%
same,"α helix, percent composition",[1]; before templation of AuNPs,45%
same,"β sheet, percent composition",[1]; before templation of AuNPs,26%
"wt: coiled-coil region of cartilage oligomeric matrix protein with the two cysteines replaced by serines, SEQ ID NO:4 (protein, human) MRGSHHHHHHGSGDLAPQMLRELQETNAALQDVRELLRQQVKEITFLKNTVMESDASGKLN",−θ222 × 10^3,[5]; pH 4,13.18 10^3 deg cm^2 dmol^-1
same,−θmin × 10^3,[5]; pH 4,13.02 10^3 deg cm^2 dmol^-1
same,random coil,[5]; pH 4,32%
same,α helices,[5]; pH 4,50%
same,β sheet,[5]; pH 4,18%
same,−θ222 × 10^3,[5]; pH 8,18.28 10^3 deg cm^2 dmol^-1
same,−θmin × 10^3,[5]; pH 8,17.61 10^3 deg cm^2 dmol^-1
same,random coil,[5]; pH 8,30%
same,α helices,[5]; pH 8,64%
same,β sheet,[5]; pH 8,6%
same,−θ222 × 10^3,[5]; pH 10,17.84 10^3 deg cm^2 dmol^-1
same,−θmin × 10^3,[5]; pH 10,17.13 10^3 deg cm^2 dmol^-1
same,random coil,[5]; pH 10,31%
same,α helices,[5]; pH 10,63%
same,β sheet,[5]; pH 10,6%
same,fiber diameters,"[2]; pH 8, 10 mM PB",17±3 nm
same,fiber diameters (known),[6],10-15 nm
same,ΔH° (van't Hoff enthalpy),[7]; pH 4,-29.9 kcal/mol
same,Tm,[7]; pH 4,48.2 °C
same,ΔG° (free energy of folding),[7]; pH 4,-2.2 kcal/mol
same,ΔS°,[7]; pH 4,-93 cal/(mol·K)
same,ΔH° (van't Hoff enthalpy),[7]; pH 8,-31.0 kcal/mol
same,Tm,[7]; pH 8,48.8 °C
same,ΔG° (free energy of folding),[7]; pH 8,-2.3 kcal/mol
same,ΔS°,[7]; pH 8,-96.6 cal/(mol·K)
same,ΔH° (van't Hoff enthalpy),[7]; pH 10,-29.8 kcal/mol
same,Tm,[7]; pH 10,46.3 °C
same,ΔG° (free energy of folding),[7]; pH 10,-2.0 kcal/mol
same,ΔS°,[7]; pH 10,-93.3 cal/(mol·K)
same,width of fibers,[4]; 12 hours,12.72 μm

# Source: patent publication US9777041B2, “Protein nanofibers from self-assembling pentamers” (New York University, priority 2013, dated 2017)
